Our source for the abundance fitness values is the Human Domainome abundance scans (Beltran et al. 2025).

Sequences and labels used below:
B1: Retinoic acid receptor RXR-alpha, residues 132 to 208; numbered along this chain, P19793 (parent)
chain: KHICAICGDRSSGKHYGVYSCEGCKGFFKRTVRKDLTYTCRDNKDCLIDKRQRNRCQYCRYQKCLAMGMKREAVQEE

± gives the uncertainty stated by the source.

The data set covers variants of B1. Nature of the data set: abundance fitness (aPCA) (normalised: wild type 0, dead -1); higher = more abundant; growth selection in yeast, the domain comes from the species named. To be noted: Homo sapiens.
Turning to KHVCAICGDRSSGKHYGVYSCEGCKGFFKRTVRKDLTYTCRDNKDCLIDKRQRNRCQYCRYQKCLAMGMKREAVQEE [I3V], the abundance fitness was -0.3 ± 0.039.

Take KHKCAICGDRSSGKHYGVYSCEGCKGFFKRTVRKDLTYTCRDNKDCLIDKRQRNRCQYCRYQKCLAMGMKREAVQEE [I3K]: the abundance fitness is -0.144 ± 0.048.

On to KHRCAICGDRSSGKHYGVYSCEGCKGFFKRTVRKDLTYTCRDNKDCLIDKRQRNRCQYCRYQKCLAMGMKREAVQEE [I3R], for which the abundance fitness is -0.218 ± 0.031.

For KHSCAICGDRSSGKHYGVYSCEGCKGFFKRTVRKDLTYTCRDNKDCLIDKRQRNRCQYCRYQKCLAMGMKREAVQEE [I3S], the abundance fitness was -0.127 ± 0.029.

In the case of KHDCAICGDRSSGKHYGVYSCEGCKGFFKRTVRKDLTYTCRDNKDCLIDKRQRNRCQYCRYQKCLAMGMKREAVQEE [I3D], the abundance fitness was -0.059 ± 0.035.

In the case of KHYCAICGDRSSGKHYGVYSCEGCKGFFKRTVRKDLTYTCRDNKDCLIDKRQRNRCQYCRYQKCLAMGMKREAVQEE [I3Y], the abundance fitness was -0.058 ± 0.038.

On to KHFCAICGDRSSGKHYGVYSCEGCKGFFKRTVRKDLTYTCRDNKDCLIDKRQRNRCQYCRYQKCLAMGMKREAVQEE [I3F], for which the abundance fitness is -0.06 ± 0.04.

In the case of KHNCAICGDRSSGKHYGVYSCEGCKGFFKRTVRKDLTYTCRDNKDCLIDKRQRNRCQYCRYQKCLAMGMKREAVQEE [I3N], the abundance fitness was -0.001 ± 0.033.

As for KHACAICGDRSSGKHYGVYSCEGCKGFFKRTVRKDLTYTCRDNKDCLIDKRQRNRCQYCRYQKCLAMGMKREAVQEE [I3A], the abundance fitness is -0.229 ± 0.033.

For the variant KHLCAICGDRSSGKHYGVYSCEGCKGFFKRTVRKDLTYTCRDNKDCLIDKRQRNRCQYCRYQKCLAMGMKREAVQEE [I3L], the abundance fitness is 0.009 ± 0.029.

For the variant KHCCAICGDRSSGKHYGVYSCEGCKGFFKRTVRKDLTYTCRDNKDCLIDKRQRNRCQYCRYQKCLAMGMKREAVQEE [I3C], the abundance fitness is 0.022 ± 0.037.

For KHICDICGDRSSGKHYGVYSCEGCKGFFKRTVRKDLTYTCRDNKDCLIDKRQRNRCQYCRYQKCLAMGMKREAVQEE [A5D], the abundance fitness worked out at 0.016 ± 0.044.

Regarding KHICHICGDRSSGKHYGVYSCEGCKGFFKRTVRKDLTYTCRDNKDCLIDKRQRNRCQYCRYQKCLAMGMKREAVQEE [A5H], the abundance fitness was 0.044 ± 0.063.

Take KHICEICGDRSSGKHYGVYSCEGCKGFFKRTVRKDLTYTCRDNKDCLIDKRQRNRCQYCRYQKCLAMGMKREAVQEE [A5E]: the abundance fitness is 0.04 ± 0.036.

As for KHICIICGDRSSGKHYGVYSCEGCKGFFKRTVRKDLTYTCRDNKDCLIDKRQRNRCQYCRYQKCLAMGMKREAVQEE [A5I], the abundance fitness turned out to be 0.055 ± 0.084.

For KHICLICGDRSSGKHYGVYSCEGCKGFFKRTVRKDLTYTCRDNKDCLIDKRQRNRCQYCRYQKCLAMGMKREAVQEE [A5L], the abundance fitness came out at 0.037 ± 0.037.

KHICGICGDRSSGKHYGVYSCEGCKGFFKRTVRKDLTYTCRDNKDCLIDKRQRNRCQYCRYQKCLAMGMKREAVQEE [A5G]: the abundance fitness is -0.045 ± 0.027.

KHICFICGDRSSGKHYGVYSCEGCKGFFKRTVRKDLTYTCRDNKDCLIDKRQRNRCQYCRYQKCLAMGMKREAVQEE [A5F]: the abundance fitness worked out at 0.171 ± 0.065.

On to KHIYAICGDRSSGKHYGVYSCEGCKGFFKRTVRKDLTYTCRDNKDCLIDKRQRNRCQYCRYQKCLAMGMKREAVQEE [C4Y], for which the abundance fitness was -0.875 ± 0.099.

As for KHIMAICGDRSSGKHYGVYSCEGCKGFFKRTVRKDLTYTCRDNKDCLIDKRQRNRCQYCRYQKCLAMGMKREAVQEE [C4M], the abundance fitness was -1.08 ± 0.16.

Consider KHISAICGDRSSGKHYGVYSCEGCKGFFKRTVRKDLTYTCRDNKDCLIDKRQRNRCQYCRYQKCLAMGMKREAVQEE [C4S], for which the abundance fitness is -1.03 ± 0.076.

For KHIQAICGDRSSGKHYGVYSCEGCKGFFKRTVRKDLTYTCRDNKDCLIDKRQRNRCQYCRYQKCLAMGMKREAVQEE [C4Q], the abundance fitness was -0.614 ± 0.088.

KHIHAICGDRSSGKHYGVYSCEGCKGFFKRTVRKDLTYTCRDNKDCLIDKRQRNRCQYCRYQKCLAMGMKREAVQEE [C4H]: the abundance fitness is -0.512 ± 0.073.

For the variant KHIVAICGDRSSGKHYGVYSCEGCKGFFKRTVRKDLTYTCRDNKDCLIDKRQRNRCQYCRYQKCLAMGMKREAVQEE [C4V], the abundance fitness is -1.03 ± 0.086.

Take KHILAICGDRSSGKHYGVYSCEGCKGFFKRTVRKDLTYTCRDNKDCLIDKRQRNRCQYCRYQKCLAMGMKREAVQEE [C4L]: the abundance fitness is -0.999 ± 0.076.

Consider KHIWAICGDRSSGKHYGVYSCEGCKGFFKRTVRKDLTYTCRDNKDCLIDKRQRNRCQYCRYQKCLAMGMKREAVQEE [C4W], for which the abundance fitness is -1.3 ± 0.19.

In the case of KHITAICGDRSSGKHYGVYSCEGCKGFFKRTVRKDLTYTCRDNKDCLIDKRQRNRCQYCRYQKCLAMGMKREAVQEE [C4T], the abundance fitness is -0.757 ± 0.063.

In the case of KHIAAICGDRSSGKHYGVYSCEGCKGFFKRTVRKDLTYTCRDNKDCLIDKRQRNRCQYCRYQKCLAMGMKREAVQEE [C4A], the abundance fitness was -0.895 ± 0.063.

Consider KHINAICGDRSSGKHYGVYSCEGCKGFFKRTVRKDLTYTCRDNKDCLIDKRQRNRCQYCRYQKCLAMGMKREAVQEE [C4N], for which the abundance fitness was -0.936 ± 0.12.

On to KHIEAICGDRSSGKHYGVYSCEGCKGFFKRTVRKDLTYTCRDNKDCLIDKRQRNRCQYCRYQKCLAMGMKREAVQEE [C4E], for which the abundance fitness is -0.866 ± 0.11.

For KHIDAICGDRSSGKHYGVYSCEGCKGFFKRTVRKDLTYTCRDNKDCLIDKRQRNRCQYCRYQKCLAMGMKREAVQEE [C4D], the abundance fitness is -0.807 ± 0.11.

As to KHIRAICGDRSSGKHYGVYSCEGCKGFFKRTVRKDLTYTCRDNKDCLIDKRQRNRCQYCRYQKCLAMGMKREAVQEE [C4R], the abundance fitness was -1.02 ± 0.066.

With KHIGAICGDRSSGKHYGVYSCEGCKGFFKRTVRKDLTYTCRDNKDCLIDKRQRNRCQYCRYQKCLAMGMKREAVQEE [C4G], the abundance fitness was -0.914 ± 0.059.

Turning to KHIPAICGDRSSGKHYGVYSCEGCKGFFKRTVRKDLTYTCRDNKDCLIDKRQRNRCQYCRYQKCLAMGMKREAVQEE [C4P], the abundance fitness was -0.99 ± 0.1.

As for KHIFAICGDRSSGKHYGVYSCEGCKGFFKRTVRKDLTYTCRDNKDCLIDKRQRNRCQYCRYQKCLAMGMKREAVQEE [C4F], the abundance fitness is -0.955 ± 0.11.

As to KHIKAICGDRSSGKHYGVYSCEGCKGFFKRTVRKDLTYTCRDNKDCLIDKRQRNRCQYCRYQKCLAMGMKREAVQEE [C4K], the abundance fitness was -1.23 ± 0.2.
